Test results reported in paper PMC12446635.

Legend:
[1] = molecular target: human plasma glycoproteins; experiment: far-Western, overlay or dot blot; human or rat plasma diluted 1:10, boiled with LDS sample buffer and 50 mM DTT, separated on 3 to 8% polyacrylamide gradient gels, transferred to BioTraceNT; GST-SLBR 5 nM in DPBS with 1x Blocking Reagent, 90 min, room temperature; detected with anti-GST; in duplicate
[2] = molecular target: biotinylated Neu5Gcα2-3Gal disaccharide; experiment: ELISA; conditions: 500 nM immobilized GST-SLBR, read off a plot
[3] = molecular target: biotinylated Neu5Acα2-3Gal disaccharide; experiment: ELISA; conditions: 500 nM immobilized GST-SLBR, read off a plot
[4] = molecular target: human plasma glycoproteins; experiment: far-Western blot densitometry (ImageJ); conditions: human plasma; parent: est. 4.0; read off a plot
rat plasma glycoproteins = experiment: far-Western blot densitometry (ImageJ); conditions: rat plasma; parent: est. 13; read off a plot
[5] = 1 μg/ml biotinylated disaccharide, parent: est. 0.18
[6] = highest ligand concentration point, about 5 μg/ml biotinylated disaccharide, parent: est. 0.41
[7] = 1 μg/ml biotinylated disaccharide, parent: est. 0.16
[8] = highest ligand concentration point, about 5 μg/ml biotinylated disaccharide, parent: est. 0.31

| Substance | fold decrease in total binding against wild-type SLBRHsa [1] [fold] | response [2, 5] [A450] | response [2, 6] [A450] | response [3, 7] [A450] | response [3, 8] [A450] | response (Signal Intensity (x1000)) [4] | response (Signal Intensity (x1000)) (rat plasma glycoproteins) |
| --- | --- | --- | --- | --- | --- | --- | --- |
| GST-tagged SLBRHsa V370F (domain or fragment) | 3 |  |  |  |  |  |  |
| GST-tagged SLBR_(SrpA) (Siglec-like binding region of the serine-rich repeat adhesin SrpA, Streptococcus sanguinis strain SK36), wild type (from UniProt A3CM52) Y368F |  | 0.62 | 0.99 | 0.26 | 0.54 | 0.2 | 15 |
| GST-tagged SLBR_(SrpA) (Siglec-like binding region of the serine-rich repeat adhesin SrpA, Streptococcus sanguinis strain SK36), wild type (from UniProt A3CM52) Y368V |  | 0.62 | 0.98 | 0.12 | 0.21 | 0 | 18 |
| GST-tagged SLBR_(SrpA) (Siglec-like binding region of the serine-rich repeat adhesin SrpA, Streptococcus sanguinis strain SK36), wild type (from UniProt A3CM52) Y368I |  | 0.81 | 1.1 | 0.16 | 0.32 | 0 | 19 |
